Laboratory results as given in patent US20210252150A1.
Like-named read-outs stand apart in the source and are kept apart here.

Legend:
[1] = target: HA of A/Taiwan/2/2013 (H6) (Influenza A virus A/Taiwan/2/2013 (H6)); experiment: ELISA, recombinant HA
[2] = target: HA of A/Solomon Islands/03/2006 (H1N1) (influenza A virus (H1N1)); experiment: ELISA, recombinant HA
[3] = target: HA of A/Fort Monthouth/1947 (H1N1) (influenza A virus (H1N1)); experiment: ELISA, recombinant HA
[4] = target: HA of A/shearwater/Western Australia/2576/1979 (H15N9) (influenza A virus (H15N9)); experiment: ELISA, recombinant HA
[5] = target: HA of A/Texas/36/1991 (H1N1) (influenza A virus (H1N1)); experiment: ELISA, recombinant HA
[6] = target: HA of A/black-headed gull/Sweden/4/1999 (H16) (influenza A virus (H16)); experiment: ELISA, recombinant HA
[7] = target: HA of A/Indonesia/5/2005 (H5N1) (influenza A virus (H5N1)); experiment: ELISA, recombinant HA
[8] = target: HA of A/Vietnam/1203/2004 (H5N1) (influenza A virus (H5N1)); experiment: ELISA, recombinant HA
[9] = target: HA of A/Taiwan/2/2013 (H6) (Influenza A virus A/Taiwan/2/2013 (H6)); experiment: ELISA, recombinant HA; remark: listed apart in the source
[10] = target: HA of A/chicken/Germany/N/1948 (H10N7) (influenza A virus (H10N7)); experiment: ELISA, recombinant HA
[11] = target: HA of A/Fort Monthouth/1947 (H1N1) (influenza A virus (H1N1)); experiment: ELISA, recombinant HA; remark: listed apart in the source
[12] = target: HA of A/shearwater/Western Australia/2576/1979 (H15N9) (influenza A virus (H15N9)); experiment: ELISA, recombinant HA; remark: listed apart in the source
[13] = target: HA of A/Netherlands/219/2003 (H7N7) (influenza A virus (H7N7)); experiment: ELISA, recombinant HA
[14] = target: dimeric recombinant soluble FcγRIIIa (CD16a), V176 (UniProt P08637)
Sequence of dimeric recombinant soluble FcγRIIIa (CD16a), V176 (P08637 17-208 F176V limits assumed): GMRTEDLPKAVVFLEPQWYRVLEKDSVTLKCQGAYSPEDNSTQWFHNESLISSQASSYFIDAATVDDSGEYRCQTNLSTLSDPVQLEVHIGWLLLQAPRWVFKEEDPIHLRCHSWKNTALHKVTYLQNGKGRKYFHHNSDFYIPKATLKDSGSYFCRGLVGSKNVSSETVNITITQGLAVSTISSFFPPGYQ

[15] = target: HA of A/chicken/Germany/N/1948 (H10N7) (influenza A virus (H10N7)); experiment: ELISA, recombinant HA; remark: listed apart in the source
[16] = target: HA of A/Hong Kong/1073/99 (H9) (influenza A virus (H9)); experiment: ELISA, recombinant HA
[17] = target: HA of A/mallard duck/Astrakhan/263/1982 (H14N5) (influenza A virus (H14N5)); experiment: ELISA, recombinant HA
[18] = target: HA of A/duck/Memphis/546/1974 (H11) (Influenza A virus A/duck/Memphis/546/1974 (H11)); experiment: ELISA, recombinant HA
[19] = target: HA of A/Shanghai/2/2013 (H7N9) (influenza A virus (H7N9)); experiment: ELISA, recombinant HA
[20] = target: HA of A/California/07/2004 (H3) (Influenza A virus A/California/07/2004 (H3)); experiment: ELISA, recombinant HA
[21] = target: HA of A/Texas/50/2012 (H3N2) (influenza A virus (H3N2)); experiment: ELISA, recombinant HA
[22] = target: HA of A/turkey/Ontario/6118/1967 (H8) (Influenza A virus A/turkey/Ontario/6118/1967 (H8)); experiment: ELISA, recombinant HA
[23] = target: HA of A/Netherlands/219/2003 (H7N7) (influenza A virus (H7N7)); experiment: ELISA, recombinant HA; remark: listed apart in the source
[24] = target: HA of A/Hong Kong/1073/99 (H9) (influenza A virus (H9)); experiment: ELISA
[25] = target: HA of A/mallard duck/Astrakhan/263/1982 (H14N5) (influenza A virus (H14N5)); experiment: ELISA
[26] = target: HA of A/New York/107/2003 (H7N2) (influenza A virus (H7N2)); experiment: ELISA
[27] = target: HA of A/Solomon Islands/03/2006 (H1N1) (influenza A virus (H1N1)); experiment: ELISA
[28] = target: HA of A/Shanghai/2/2013 (H7N9) (influenza A virus (H7N9)); experiment: ELISA
[29] = target: HA of A/Switzerland/9715293/2013 (H3) (influenza A virus (H3)); experiment: ELISA
[30] = target: HA of A/Texas/36/1991 (H1N1) (influenza A virus (H1N1)); experiment: ELISA
[31] = target: HA of A/Texas/50/2012 (H3N2) (influenza A virus (H3N2)); experiment: ELISA
[32] = target: HA of A/black-headed gull/Sweden/4/1999 (H16) (influenza A virus (H16)); experiment: ELISA
[33] = target: HA of A/gull/Maryland/704/1977 (H13) (influenza A virus (H13)); experiment: ELISA
[34] = target: HA of A/Indonesia/5/2005 (H5N1) (influenza A virus (H5N1)); experiment: ELISA
[35] = target: HA of A/Minnesota/11/10 (H3) (influenza A virus (H3)); experiment: ELISA
[36] = target: HA of A/Vietnam/1203/2004 (H5N1) (influenza A virus (H5N1)); experiment: ELISA
[37] = target: HA of A/Hong Kong/1073/99 (H9) (influenza A virus (H9)); experiment: ELISA; remark: listed apart in the source
[38] = target: HA of A/mallard duck/Astrakhan/263/1982 (H14N5) (influenza A virus (H14N5)); experiment: ELISA; remark: listed apart in the source
[39] = target: HA of A/Solomon Islands/03/2006 (H1N1) (influenza A virus (H1N1)); experiment: ELISA; remark: listed apart in the source
[40] = target: HA of A/Shanghai/2/2013 (H7N9) (influenza A virus (H7N9)); experiment: ELISA; remark: listed apart in the source
[41] = target: HA of A/Switzerland/9715293/2013 (H3) (influenza A virus (H3)); experiment: ELISA; remark: listed apart in the source
[42] = target: HA of A/shearwater/Western Australia/2576/1979 (H15N9) (influenza A virus (H15N9)); experiment: ELISA
[43] = target: HA of A/Texas/36/1991 (H1N1) (influenza A virus (H1N1)); experiment: ELISA; remark: listed apart in the source
[44] = target: HA of A/Texas/50/2012 (H3N2) (influenza A virus (H3N2)); experiment: ELISA; remark: listed apart in the source
[45] = target: HA of A/Netherlands/219/2003 (H7N7) (influenza A virus (H7N7)); experiment: ELISA
[46] = target: HA of A/Indonesia/5/2005 (H5N1) (influenza A virus (H5N1)); experiment: ELISA; remark: listed apart in the source
[47] = target: dimeric recombinant soluble FcγRIIIa (CD16a), V176 (UniProt P08637); remark: listed apart in the source
[48] = target: HA of A/Solomon Islands/03/2006 (H1N1) (influenza A virus (H1N1)); experiment: BLI, Fab on immobilized biotinylated HA
[49] = target: HA of A/Victoria/361/2011 (H3N2) (influenza A virus (H3N2)); experiment: BLI, Fab on immobilized biotinylated HA
[50] = target: HA of A/Indonesia/5/2005 (H5N1) (influenza A virus (H5N1)); experiment: BLI, Fab on immobilized biotinylated HA
[51] = target: HA of A/Vietnam/1203/2004 (H5N1) (influenza A virus (H5N1)); experiment: BLI, Fab on immobilized biotinylated HA
[52] = target: HA of A/Hong Kong/1073/99 (H9) (influenza A virus (H9)); experiment: ELISA, recombinant HA; remark: listed apart in the source
[53] = target: HA of A/mallard duck/Astrakhan/263/1982 (H14N5) (influenza A virus (H14N5)); experiment: ELISA, recombinant HA; remark: listed apart in the source
[54] = target: HA of A/Solomon Islands/03/2006 (H1N1) (influenza A virus (H1N1)); experiment: ELISA, recombinant HA; remark: listed apart in the source
[55] = target: HA of A/Shanghai/2/2013 (H7N9) (influenza A virus (H7N9)); experiment: ELISA, recombinant HA; remark: listed apart in the source
[56] = target: HA of A/Switzerland/9715293/2013 (H3) (influenza A virus (H3)); experiment: ELISA, recombinant HA
[57] = target: HA of A/Texas/36/1991 (H1N1) (influenza A virus (H1N1)); experiment: ELISA, recombinant HA; remark: listed apart in the source
[58] = target: HA of A/Texas/50/2012 (H3N2) (influenza A virus (H3N2)); experiment: ELISA, recombinant HA; remark: listed apart in the source
[59] = target: HA of A/Indonesia/5/2005 (H5N1) (influenza A virus (H5N1)); experiment: ELISA, recombinant HA; remark: listed apart in the source

Work on CR6261 (antibody) yielded an EC50 [1] of 0.048 µg/mL, an EC50 [2] of 0.013 µg/mL and an EC50 [3] of 0.043 µg/mL. It also gave an EC50 [4] of 0.061 µg/mL, an EC50 [5] of 0.025 µg/mL and an EC50 [6] of 0.245 µg/mL. It also gave an EC50 [7] of 0.026 µg/mL and an EC50 [8] of 0.031 µg/mL.

Work on “FluA-20 (hybridoma-produced IgG) (antibody)” yielded an EC50 [9] of 0.147 µg/mL, an EC50 [10] of 0.031 µg/mL and an EC50 [11] of 0.012 µg/mL. For the same substance, the EC50 [12] was 0.015 µg/mL, the EC50 [13] was 0.029 µg/mL and the EC50 (read off the curve) [14] was 0.3 µg/mL. The EC50 [1] was 0.061 µg/mL, the EC50 [15] was 0.037 µg/mL and the EC50 [16] was 0.007 µg/mL. The EC50 [17] was 0.007 µg/mL, the EC50 [18] was 0.072 µg/mL and the EC50 [2] was 0.008 µg/mL. It also gave an EC50 [19] of 0.012 µg/mL, an EC50 [20] of 0.008 µg/mL and an EC50 [3] of 0.007 µg/mL. It also gave an EC50 [4] of 0.007 µg/mL, an EC50 [5] of 0.009 µg/mL and an EC50 [21] of 0.006 µg/mL. It also gave an EC50 [22] of 0.005 µg/mL, an EC50 [23] of 0.006 µg/mL and an EC50 [7] of 0.016 µg/mL. It also gave an EC50 [8] of 0.142 µg/mL, an EC50 [24] of 0.009 µg/mL and an EC50 [25] of 0.013 µg/mL. It also gave an EC50 [26] of 0.808 µg/mL, an EC50 [27] of 0.005 µg/mL and an EC50 [28] of 0.066 µg/mL. The EC50 [29] was 0.019 µg/mL, the EC50 [30] was 0.004 µg/mL and the EC50 [31] was 0.004 µg/mL. For the same substance, the EC50 [32] was > 10 µg/mL, the EC50 [33] was 0.07 µg/mL and the EC50 [34] was 0.085 µg/mL. For the same substance, the EC50 [35] was > 10 µg/mL, the EC50 [36] was 0.283 µg/mL and the EC50 [37] was 0.41 µg/mL. The EC50 [38] was 0.95 µg/mL, the EC50 [39] was 0.05 µg/mL and the EC50 [40] was 0.12 µg/mL. The EC50 [41] was 0.55 µg/mL, the EC50 [42] was 0.08 µg/mL and the EC50 [43] was 0.05 µg/mL. The EC50 [44] was 0.09 µg/mL, the EC50 [45] was 0.05 µg/mL and the EC50 [46] was 6.05 µg/mL. The EC50 (read off the curve) [47] was 0.3 µg/mL.

FluA-20 Fab was tested, and the Kd [48] was 2 nM, the Kd [49] was 15 nM and the Kd [50] was 88 nM. The Kd [51] was 122 nM.

Work on “rFluA-20 (recombinant FluA-20 IgG) (antibody)” yielded an EC50 [9] of 0.229 µg/mL, an EC50 [10] of 0.129 µg/mL and an EC50 [52] of 0.407 µg/mL. For the same substance, the EC50 [53] was 0.071 µg/mL, the EC50 [54] was 0.047 µg/mL and the EC50 [55] was 0.117 µg/mL. The EC50 [11] was 0.02 µg/mL, the EC50 [56] was 0.548 µg/mL and the EC50 [12] was 0.136 µg/mL. It also gave an EC50 [57] of 0.046 µg/mL, an EC50 [58] of 0.086 µg/mL and an EC50 [13] of 0.054 µg/mL. The EC50 [59] was 6.05 µg/mL, the EC50 [1] was 0.063 µg/mL and the EC50 [15] was 0.041 µg/mL. For the same substance, the EC50 [18] was 0.076 µg/mL, the EC50 [20] was 0.009 µg/mL and the EC50 [3] was 0.007 µg/mL. It also gave an EC50 [22] of 0.005 µg/mL, an EC50 [8] of 0.133 µg/mL and an EC50 [37] of 0.007 µg/mL. The EC50 [38] was 0.007 µg/mL, the EC50 [39] was 0.008 µg/mL and the EC50 [40] was 0.013 µg/mL. The EC50 [42] was 0.007 µg/mL, the EC50 [43] was 0.008 µg/mL and the EC50 [44] was 0.007 µg/mL. For the same substance, the EC50 [45] was 0.005 µg/mL and the EC50 [46] was 0.016 µg/mL.
